Assay results as given in patent publication US20120266260A1.

Columns and labels:
[1] = biological target: synthetic IgA1 hinge-region glycopeptide linked to BSA with 3 GalNAc residues (HR-GalNAc-BSA) (bovine) (UniProt P02769); test: ELISA, wells with HR-GalNAc-BSA treated with unlabeled HAA (20 ug/ml); competitor: IgG from cell lines of IgAN patients
[2] = biological target: Gal-deficient IgA1 (Mce) myeloma protein (human) (UniProt P01876); test: Western blot, membrane pre-incubated with unlabeled HAA (20 ug/ml); competitor: IgG purified from the serum of an IgAN patient; densitometry

Q: How did the percent inhibition of IgG binding [1] turn out when Helix aspersa agglutinin (HAA) was run?
A: 78%

Q: And the percent reduction of IgG binding [2]?
A: 66%
